Assay results from US20230071765A1, “COMPOSITIONS HAVING THIOREDOXIN ACTIVITY AND RELATED METHODS” (ORPRO THERAPEUTICS, INC., priority 2020, published 2023).

B1: ORP100S (fully monocysteinic human thioredoxin-1, reduced form) (enzyme)
chain: VKQIESKTAFQEALDAAGDKLVVVDFSATWCGPSKMIKPFFHSLSEKYSNVIFLEVDVDDSQDVASESEVKSMPTFQFFKKGQKVGEFSGANKEKLEATINELV
B2: oxidized ORP100S treated with iodacetamide (IA) (enzyme)
chain: B1 chain
modifications: Cys32 oxidized / treated with iodoacetamide, as printed: 'oxidized ORP100S treated with iodacetamide (IA)'

Target: human insulin (disulfide-bonded heterodimer) (human) (UniProt P01308)
Sequence (P01308 90-110 limits assumed, chain 1 of 2): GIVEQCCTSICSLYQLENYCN
Sequence (P01308 25-54 limits assumed, chain 2 of 2): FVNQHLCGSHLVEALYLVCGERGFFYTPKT
Assay: cell-based or functional assay

Row | Binder | Relative % insulin reduction (ORP100S Ox 0 : Red 100) (% relative to maximum) | Relative % insulin reduction (ORP100S mixture Ox 25 : Red 75) (% relative to maximum) | Relative % insulin reduction (ORP100S mixture Ox 50 : Red 50) (% relative to maximum) | Relative % insulin reduction (ORP100S mixture Ox 75 : Red 25) (% relative to maximum) | maximum insulin heterodimer reaction with fully reduced material (RP-HPLC insulin reduction assay) [%] | Relative % insulin reduction (ORP100S Ox 100 : Red 0) (% relative to maximum)
1 | B1 | 100 | 72 | 51 | 36 | 45 | –
2 | B2 | – | – | – | – | – | 8
